Measured values from the supplement of paper PMC10065799, “High-throughput profiling of sequence recognition by tyrosine kinases and SH2 domains using bacterial peptide display” (eLife, 2023).

These sequences were tested against EPHB2 (UniProt P29323) (assay: phosphorylation enrichment, bacterial display (enrichment ratio); higher = better substrate or ligand; peptides without Tyr show the background).
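Throughout, for SH2 binding enrichment of the phosphorylated peptide, bacterial display: peptide library displayed on the E. coli surface as eCPX fusions, selected cells deep-sequenced, score is each peptide's frequency after selection divided by its frequency in the input.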
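Throughout, for phosphorylation enrichment, bacterial display: 11-residue human phosphosite peptides and single-mutation variants displayed on the E. coli surface, counted by deep sequencing, each peptide's frequency after selection divided by its frequency in the unselected input library; frequency after pTyr selection over input frequency; kinase dosed for 20-30% of maximal phosphorylation in three min.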

Chain of EPHB2 (P29323 whole entry, looked up, the tested form may be a part): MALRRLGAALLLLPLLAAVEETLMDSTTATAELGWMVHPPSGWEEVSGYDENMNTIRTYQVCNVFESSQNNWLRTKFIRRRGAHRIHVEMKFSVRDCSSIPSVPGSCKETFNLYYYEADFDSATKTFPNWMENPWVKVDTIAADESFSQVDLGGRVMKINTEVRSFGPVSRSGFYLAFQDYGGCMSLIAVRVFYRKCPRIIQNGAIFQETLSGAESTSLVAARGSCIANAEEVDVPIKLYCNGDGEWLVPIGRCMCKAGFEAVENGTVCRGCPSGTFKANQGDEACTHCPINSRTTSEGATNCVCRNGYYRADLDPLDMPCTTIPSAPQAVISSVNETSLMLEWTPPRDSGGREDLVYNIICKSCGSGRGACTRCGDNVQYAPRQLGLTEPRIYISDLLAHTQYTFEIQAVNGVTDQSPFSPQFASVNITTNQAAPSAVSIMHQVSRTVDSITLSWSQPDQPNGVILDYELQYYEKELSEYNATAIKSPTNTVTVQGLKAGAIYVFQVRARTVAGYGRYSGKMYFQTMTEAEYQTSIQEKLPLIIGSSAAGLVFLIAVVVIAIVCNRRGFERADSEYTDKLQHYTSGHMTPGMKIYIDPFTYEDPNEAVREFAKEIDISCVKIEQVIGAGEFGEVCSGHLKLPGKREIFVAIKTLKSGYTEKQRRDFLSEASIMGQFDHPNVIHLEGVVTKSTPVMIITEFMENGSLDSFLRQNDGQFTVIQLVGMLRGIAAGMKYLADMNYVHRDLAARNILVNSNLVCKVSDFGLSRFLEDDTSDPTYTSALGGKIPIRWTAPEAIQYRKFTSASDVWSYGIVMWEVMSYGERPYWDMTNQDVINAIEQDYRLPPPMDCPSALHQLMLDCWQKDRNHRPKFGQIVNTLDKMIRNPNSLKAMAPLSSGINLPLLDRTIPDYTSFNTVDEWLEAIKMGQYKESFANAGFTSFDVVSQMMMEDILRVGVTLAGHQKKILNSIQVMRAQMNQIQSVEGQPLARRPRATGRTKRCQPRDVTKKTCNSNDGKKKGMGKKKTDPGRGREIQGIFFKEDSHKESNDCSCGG

Row | Sequence | phosphorylation enrichment
1 | EQKKFYNATKK [SCN5A_Y1495_M1498T_YF] | 0.348
2 | RLRKFHLGKFL [KLB_Y906_Y906H_YF] | 1.16
3 | STEAIYRRFSK [SH3PXD2B_Y42_YF] | 0.293
4 | CEETFYTMKVN [MASP2_Y401] | 0.625
5 | NTGYYYDLYGG [PTPN11_Y63_D61Y] | 10.6
6 | RLSELYLRRNR [CFAP410_Y68] | 0.807
7 | KLQKFYRKNPD [EHHADH_Y683_Q685K_YF] | 0.32
8 | KLLLKYSFHDA [RNF213_Y4141_V4146A] | 0.615
9 | YQKDVYDIPPS [NEDD9_Y177] | 3.2
10 | ERNARYRTPKI [PTK2B_Y699] | 0.276
11 | DSASAYADEVK [ETNPPL_Y189] | 0.544
12 | VNNLVYENING [FRS2_Y306_K303N] | 4.94
13 | PVFQVYPLLNC [GATA1_Y78] | 0.64
14 | LFHENYNAGTY [CFI_Y421_I416L] | 0.626
15 | CQAHGYFCQLI [STK11_Y156] | 0.546
16 | FSPGSNERETF [NF1_Y2192_Y2192N] | 0.605

Row | Sequence | phosphorylation enrichment
17 | EHTTLYSNNST [KANSL1_Y223] | 0.53
18 | SVVVPYAPPEV [TP53_Y220_E221A] | 0.499
19 | GFPVHYTDMSN [DNMT3B_Y815_V818M] | 0.439
20 | PIGRKYKKVRF [F8_Y442_R437P] | 0.597
21 | VRHRRYKHTHE [CTCF_Y343] | 0.622
22 | FVTCTYSPALN [TP53_Y126_S121F] | 0.501
23 | RYMELYDLNRD [BBS2_Y648] | 1.05
24 | FPDFVYKCIKA [DPYSL2_Y479_R481C] | 0.613
25 | SWDKRYCEAGF [ITGA2B_Y197] | 0.692
26 | NELTFYCCKKD [CD59_Y87_YF] | 0.739
27 | KNKNRYKNVLP [PTPN11_Y279_I282V] | 0.398
28 | FVSAAYVKKLD [SPTAN1_Y1020_P1017S] | 0.618
29 | PLDGEYLTLQI [TP53_Y327_F328L] | 1.23
30 | FVSIVYNDFGE [TSC2_Y1650_S1653F] | 0.665
31 | KEAALYPHLLP [SQSTM1_Y383_P387L] | 0.544
32 | GREEFYVHFVG [KAT8_Y90_YF] | 0.602

These sequences were tested against SHP2-C SH2 (assay: SH2 binding enrichment of the phosphorylated peptide, bacterial display (enrichment ratio); higher = better substrate or ligand; peptides without Tyr show the background).

Row | Sequence | SH2 binding enrichment
33 | AEMTGYVVTRW [MAPK13_Y182] | 0.586
34 | EQKKFYNATKK [SCN5A_Y1495_M1498T_YF] | 0.729
35 | RLRKFHLGKFL [KLB_Y906_Y906H_YF] | 0.406
36 | STEAIYRRFSK [SH3PXD2B_Y42_YF] | 0.553
37 | CEETFYTMKVN [MASP2_Y401] | 0.788
38 | NTGYYYDLYGG [PTPN11_Y63_D61Y] | 1.56
39 | RLSELYLRRNR [CFAP410_Y68] | 0.585
40 | KLQKFYRKNPD [EHHADH_Y683_Q685K_YF] | 0.702
41 | KLLLKYSFHDA [RNF213_Y4141_V4146A] | 1.02
42 | YQKDVYDIPPS [NEDD9_Y177] | 0.531
43 | ERNARYRTPKI [PTK2B_Y699] | 0.71
44 | DSASAYADEVK [ETNPPL_Y189] | 0.661
45 | VNNLVYENING [FRS2_Y306_K303N] | 1.35
46 | PVFQVYPLLNC [GATA1_Y78] | 0.783
47 | LFHENYNAGTY [CFI_Y421_I416L] | 0.818
48 | CQAHGYFCQLI [STK11_Y156] | 1.17
49 | FSPGSNERETF [NF1_Y2192_Y2192N] | 0.662

Row | Sequence | SH2 binding enrichment
50 | EHTTLYSNNST [KANSL1_Y223] | 0.863
51 | SVVVPYAPPEV [TP53_Y220_E221A] | 0.602
52 | GFPVHYTDMSN [DNMT3B_Y815_V818M] | 6.03
53 | PIGRKYKKVRF [F8_Y442_R437P] | 0.648
54 | VRHRRYKHTHE [CTCF_Y343] | 0.714
55 | FVTCTYSPALN [TP53_Y126_S121F] | 0.655
56 | RYMELYDLNRD [BBS2_Y648] | 0.8
57 | FPDFVYKCIKA [DPYSL2_Y479_R481C] | 0.727
58 | SWDKRYCEAGF [ITGA2B_Y197] | 0.569
59 | NELTFYCCKKD [CD59_Y87_YF] | 0.707
60 | KNKNRYKNVLP [PTPN11_Y279_I282V] | 0.886
61 | FVSAAYVKKLD [SPTAN1_Y1020_P1017S] | 0.804
62 | PLDGEYLTLQI [TP53_Y327_F328L] | 0.555
63 | FVSIVYNDFGE [TSC2_Y1650_S1653F] | 1.68
64 | KEAALYPHLLP [SQSTM1_Y383_P387L] | 0.645
65 | GREEFYVHFVG [KAT8_Y90_YF] | 0.621
66 | LSCVIYVILRK [PMP22_Y153_G150C] | 2.02

Each sequence was assayed against c-Src SH2 in the same assay as above.

Row | Sequence | SH2 binding enrichment
67 | AEMTGYVVTRW [MAPK13_Y182] | 0.47
68 | EQKKFYNATKK [SCN5A_Y1495_M1498T_YF] | 0.606
69 | RLRKFHLGKFL [KLB_Y906_Y906H_YF] | 0.303
70 | STEAIYRRFSK [SH3PXD2B_Y42_YF] | 0.472
71 | CEETFYTMKVN [MASP2_Y401] | 0.522
72 | NTGYYYDLYGG [PTPN11_Y63_D61Y] | 5.74
73 | RLSELYLRRNR [CFAP410_Y68] | 0.344
74 | KLQKFYRKNPD [EHHADH_Y683_Q685K_YF] | 0.638
75 | KLLLKYSFHDA [RNF213_Y4141_V4146A] | 0.81
76 | YQKDVYDIPPS [NEDD9_Y177] | 0.532
77 | ERNARYRTPKI [PTK2B_Y699] | 0.428
78 | DSASAYADEVK [ETNPPL_Y189] | 0.593
79 | VNNLVYENING [FRS2_Y306_K303N] | 2.29
80 | PVFQVYPLLNC [GATA1_Y78] | 0.49
81 | LFHENYNAGTY [CFI_Y421_I416L] | 0.704
82 | CQAHGYFCQLI [STK11_Y156] | 0.984
83 | FSPGSNERETF [NF1_Y2192_Y2192N] | 0.447

Row | Sequence | SH2 binding enrichment
84 | EHTTLYSNNST [KANSL1_Y223] | 0.651
85 | SVVVPYAPPEV [TP53_Y220_E221A] | 0.463
86 | GFPVHYTDMSN [DNMT3B_Y815_V818M] | 3.25
87 | PIGRKYKKVRF [F8_Y442_R437P] | 0.568
88 | VRHRRYKHTHE [CTCF_Y343] | 0.364
89 | FVTCTYSPALN [TP53_Y126_S121F] | 0.517
90 | RYMELYDLNRD [BBS2_Y648] | 5.58
91 | FPDFVYKCIKA [DPYSL2_Y479_R481C] | 0.538
92 | SWDKRYCEAGF [ITGA2B_Y197] | 0.812
93 | NELTFYCCKKD [CD59_Y87_YF] | 0.503
94 | KNKNRYKNVLP [PTPN11_Y279_I282V] | 0.803
95 | FVSAAYVKKLD [SPTAN1_Y1020_P1017S] | 0.379
96 | PLDGEYLTLQI [TP53_Y327_F328L] | 0.504
97 | FVSIVYNDFGE [TSC2_Y1650_S1653F] | 1.52
98 | KEAALYPHLLP [SQSTM1_Y383_P387L] | 0.436
99 | GREEFYVHFVG [KAT8_Y90_YF] | 0.472
100 | LSCVIYVILRK [PMP22_Y153_G150C] | 1.75

What follows are sequences tested against Grb2 SH2 (UniProt P62993) in the same assay as above.
Chain of Grb2 SH2 (P62993 whole entry, looked up): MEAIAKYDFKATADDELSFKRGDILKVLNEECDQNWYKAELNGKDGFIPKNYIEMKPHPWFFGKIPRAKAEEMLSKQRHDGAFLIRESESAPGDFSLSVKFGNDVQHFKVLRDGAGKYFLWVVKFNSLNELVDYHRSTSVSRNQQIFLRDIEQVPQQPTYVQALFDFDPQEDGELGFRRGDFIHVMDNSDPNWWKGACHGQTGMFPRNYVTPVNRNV

Row | Sequence | SH2 binding enrichment
101 | AEMTGYVVTRW [MAPK13_Y182] | 0.845
102 | EQKKFYNATKK [SCN5A_Y1495_M1498T_YF] | 0.996
103 | RLRKFHLGKFL [KLB_Y906_Y906H_YF] | 0.229
104 | STEAIYRRFSK [SH3PXD2B_Y42_YF] | 0.812
105 | CEETFYTMKVN [MASP2_Y401] | 0.842
106 | NTGYYYDLYGG [PTPN11_Y63_D61Y] | 1.33
107 | RLSELYLRRNR [CFAP410_Y68] | 0.736
108 | KLQKFYRKNPD [EHHADH_Y683_Q685K_YF] | 0.86
109 | KLLLKYSFHDA [RNF213_Y4141_V4146A] | 1.16
110 | YQKDVYDIPPS [NEDD9_Y177] | 0.852
111 | ERNARYRTPKI [PTK2B_Y699] | 0.599
112 | DSASAYADEVK [ETNPPL_Y189] | 0.724
113 | VNNLVYENING [FRS2_Y306_K303N] | 5.57
114 | PVFQVYPLLNC [GATA1_Y78] | 0.742
115 | LFHENYNAGTY [CFI_Y421_I416L] | 0.9
116 | CQAHGYFCQLI [STK11_Y156] | 1.2
117 | FSPGSNERETF [NF1_Y2192_Y2192N] | 0.886

Row | Sequence | SH2 binding enrichment
118 | EHTTLYSNNST [KANSL1_Y223] | 0.846
119 | SVVVPYAPPEV [TP53_Y220_E221A] | 0.766
120 | GFPVHYTDMSN [DNMT3B_Y815_V818M] | 0.787
121 | PIGRKYKKVRF [F8_Y442_R437P] | 0.653
122 | VRHRRYKHTHE [CTCF_Y343] | 0.665
123 | FVTCTYSPALN [TP53_Y126_S121F] | 0.887
124 | RYMELYDLNRD [BBS2_Y648] | 0.989
125 | FPDFVYKCIKA [DPYSL2_Y479_R481C] | 0.818
126 | SWDKRYCEAGF [ITGA2B_Y197] | 1.07
127 | NELTFYCCKKD [CD59_Y87_YF] | 0.938
128 | KNKNRYKNVLP [PTPN11_Y279_I282V] | 0.734
129 | FVSAAYVKKLD [SPTAN1_Y1020_P1017S] | 0.885
130 | PLDGEYLTLQI [TP53_Y327_F328L] | 0.522
131 | FVSIVYNDFGE [TSC2_Y1650_S1653F] | 1.96
132 | KEAALYPHLLP [SQSTM1_Y383_P387L] | 0.87
133 | GREEFYVHFVG [KAT8_Y90_YF] | 0.867
134 | LSCVIYVILRK [PMP22_Y153_G150C] | 2.2
